Columns and labels:
ABCA1 = molecular target: T1, ABCA1 (Homo sapiens, UniProt O95477); test: membrane ABCA1 stability testing in ARPE-19 cells treated with mCRP; assay type: cell-based; settings: ARPE-19, mCRP, 20 μM peptide, 24 hours
T1 construct: endogenous in cells; host or cells: ARPE-19
Experimental: ARPE-19 cells were seeded at 100,000 cells per well on 12-well plates and were allowed to grow to confluence. To prepare monomeric CRP (mCRP), recombinant CRP was prepared in a PBS solution containing 8 M Urea and 10 mM EDTA and incubated at 37° C. for 2 hours prior to desalting with a Zeba spin column (7K MW cutoff). mCRP was prepared to a 2× solution of 20 μg/mL. A 2× solution of 40 μM peptides was prepared in serum-free DMEM and serially diluted 1:2 over 4 concentrations. mCRP and peptides were added 1:1 to cells for 24 hours at 37° C. before isolating membrane protein and measuring membrane ABCA1 levels by western blot. Blots were quantified in ImageJ. Signals were further normalized to the LXR agonist treated group to determine percent (%) ABCA1 remaining. Treatment with LXR agonist increased membrane ABCA1 levels in this assay, but following treatment with mCRP, membrane ABCA1 levels were decreased.
FIGS. 35 and 36 show membrane ABCA1 stability testing using ARPE-19 cells. ARPE-19 cells were seeded at 100,000 cells per well on 12-well plates and were allowed to grow to confluence. To prepare monomeric CRP (mCRP), recombinant CRP was prepared in a PBS solution containing 8 M Urea and 10 mM EDTA and incubated at 37° C. for 2 hours prior to desalting with a Zeba spin column (7K MW cutoff). mCRP was prepared to a 2× solution of 20 μg/mL. A 2× solution of 40 μM peptides was prepared in serum-free DMEM. CRP and peptides were added 1:1 to cells for 24 hours at 37° C. before isolating membrane protein and measuring membrane ABCA1 levels by western blot. Blots were quantified in ImageJ. In FIG. 35, Signals were further normalized to the T-087 treated group to determine percent (%) ABCA1 levels compared to peptide T-087 treated cells. In FIG. 36, Signals were further normalized to the peptide T-101 treated group to determine percent (%) ABCA1 levels compared to peptide T-101 treated cells.

HMC3 cells = test: HMC3 cholesterol efflux; assay type: cell-based, human; settings: HMC3, 20 μM peptide, 4 hours
Experimental: (§1) FIGS. 27A-27B and FIG. 28 illustrate HMC3 cholesterol efflux. Fully confluent 96-well plates of HMC3 cells were treated for 1 hour in serum-free EMEM containing 10 mM methyl-β-cyclodextrin, 100 μM cholesterol, and 25 μM BODIPY cholesterol. Cells were then washed and incubated overnight in serum free EMEM containing 1 μM LXR agonist GW3965, 2 μg/mL ACAT inhibitor, and 0.2% BSA (LXR Agonist treated), or serum-free EMEM containing 2 μg/mL ACAT inhibitor, and 0.2% BSA (Control). Cells were washed and incubated with 20 μM peptides diluted in serum-free Fluorobrite DMEM for 4 hours at 37° C. Media was transferred to a new 96-well plate and fresh serum-free Fluorobrite DMEM was placed on the cells. Media and cellular fluorescence were read on a Promega GloMax at 475 nm excitation, 500-550 emission. Fluorescence values were background corrected from no treatment conditions and percent efflux was calculated by the following equation: % efflux=(Media Fluorescence values)/(Media+Cell Fluorescence values). Data are presented as mean+SD over two runs per peptide.
as §1, with “FIGS. 30A-30J show” for “FIGS. 27A-27B and FIG. 28 illustrate”, “cholesterol efflux titration curves for the indicated peptides.” for “cholesterol efflux.”, “μM” for “μM LXR agonist”, “or serum free” for “or serum-free”, “with 0-100” for “with 20”, “peptides serially” for “peptides”

T1 sequence (O95477 whole entry): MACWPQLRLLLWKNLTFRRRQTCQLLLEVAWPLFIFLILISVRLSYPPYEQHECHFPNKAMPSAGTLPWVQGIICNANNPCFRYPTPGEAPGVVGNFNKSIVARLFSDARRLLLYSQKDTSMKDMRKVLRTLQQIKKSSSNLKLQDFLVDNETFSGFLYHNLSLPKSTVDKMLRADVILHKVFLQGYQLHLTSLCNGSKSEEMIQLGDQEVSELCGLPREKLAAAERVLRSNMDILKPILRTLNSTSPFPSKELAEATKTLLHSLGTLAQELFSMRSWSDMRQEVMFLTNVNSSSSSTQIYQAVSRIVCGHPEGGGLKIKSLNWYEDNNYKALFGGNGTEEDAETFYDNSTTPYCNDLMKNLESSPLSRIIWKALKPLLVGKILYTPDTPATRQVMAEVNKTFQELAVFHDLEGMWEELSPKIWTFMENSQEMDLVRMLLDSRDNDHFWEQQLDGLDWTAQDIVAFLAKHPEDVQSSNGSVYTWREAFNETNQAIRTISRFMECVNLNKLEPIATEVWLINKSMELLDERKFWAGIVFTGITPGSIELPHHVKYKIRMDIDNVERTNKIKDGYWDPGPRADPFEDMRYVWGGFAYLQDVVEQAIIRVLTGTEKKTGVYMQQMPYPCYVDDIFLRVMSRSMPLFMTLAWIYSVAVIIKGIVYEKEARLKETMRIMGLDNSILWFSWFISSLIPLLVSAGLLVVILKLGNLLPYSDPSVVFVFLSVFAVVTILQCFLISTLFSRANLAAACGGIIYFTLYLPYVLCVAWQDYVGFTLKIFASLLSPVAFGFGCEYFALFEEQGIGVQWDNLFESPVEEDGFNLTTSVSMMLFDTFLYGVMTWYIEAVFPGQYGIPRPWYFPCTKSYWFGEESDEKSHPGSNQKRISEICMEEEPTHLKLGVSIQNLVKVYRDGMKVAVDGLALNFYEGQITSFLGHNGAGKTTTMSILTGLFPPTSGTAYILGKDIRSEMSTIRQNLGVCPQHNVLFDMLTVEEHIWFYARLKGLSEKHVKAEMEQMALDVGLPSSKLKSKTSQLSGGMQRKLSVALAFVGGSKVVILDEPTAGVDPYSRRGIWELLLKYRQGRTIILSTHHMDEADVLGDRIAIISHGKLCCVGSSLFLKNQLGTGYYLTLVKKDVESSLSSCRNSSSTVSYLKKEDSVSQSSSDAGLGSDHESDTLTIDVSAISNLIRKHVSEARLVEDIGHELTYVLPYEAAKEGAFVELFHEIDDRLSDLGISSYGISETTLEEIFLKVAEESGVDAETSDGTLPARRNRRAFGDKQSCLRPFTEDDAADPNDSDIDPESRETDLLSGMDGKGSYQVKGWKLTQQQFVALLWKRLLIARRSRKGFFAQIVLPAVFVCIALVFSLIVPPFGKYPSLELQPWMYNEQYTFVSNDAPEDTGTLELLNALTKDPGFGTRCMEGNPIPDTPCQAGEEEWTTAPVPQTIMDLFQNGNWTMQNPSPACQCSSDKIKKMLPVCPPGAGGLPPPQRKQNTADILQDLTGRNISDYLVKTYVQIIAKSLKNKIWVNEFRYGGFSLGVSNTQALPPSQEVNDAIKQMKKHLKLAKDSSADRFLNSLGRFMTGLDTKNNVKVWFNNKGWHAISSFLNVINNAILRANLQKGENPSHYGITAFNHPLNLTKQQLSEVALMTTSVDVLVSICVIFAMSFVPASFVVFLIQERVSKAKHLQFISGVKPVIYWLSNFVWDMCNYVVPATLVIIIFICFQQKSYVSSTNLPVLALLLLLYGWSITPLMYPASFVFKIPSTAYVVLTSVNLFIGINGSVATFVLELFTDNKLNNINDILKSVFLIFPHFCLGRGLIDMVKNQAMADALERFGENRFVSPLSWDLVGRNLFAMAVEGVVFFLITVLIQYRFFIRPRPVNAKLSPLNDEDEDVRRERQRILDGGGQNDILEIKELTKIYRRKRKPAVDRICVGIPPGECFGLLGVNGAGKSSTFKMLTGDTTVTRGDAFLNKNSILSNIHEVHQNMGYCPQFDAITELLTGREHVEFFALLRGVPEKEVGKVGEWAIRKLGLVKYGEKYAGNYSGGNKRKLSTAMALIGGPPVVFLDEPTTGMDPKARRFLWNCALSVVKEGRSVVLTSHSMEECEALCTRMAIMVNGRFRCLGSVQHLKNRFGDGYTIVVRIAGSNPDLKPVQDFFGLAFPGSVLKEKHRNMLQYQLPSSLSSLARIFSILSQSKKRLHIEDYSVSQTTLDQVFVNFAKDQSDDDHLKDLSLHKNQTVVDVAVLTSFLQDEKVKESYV

| Substance | membrane ABCA1 levels compared to peptide T-101 treated cells (ABCA1) | cholesterol efflux in the presence of LXR agonist (HMC3 cells) | membrane ABCA1 levels compared to peptide T-087 treated cells (ABCA1) |
| --- | --- | --- | --- |
| T-104: therapeutic peptide (TVRGSADALLEHLTRAWDGFNR) | reduction of membrane ABCA1 levels | – | – |
| T-121: variant of peptide T-101 (ASGADALESALKELKRFIREWT) | reduction of membrane ABCA1 levels | greater cholesterol efflux | – |
| T-124: variant of peptide T-101 (RSGPDALESALKELKRFIREWT) | reduction of membrane ABCA1 levels | greater cholesterol efflux | – |
| T-126: variant of peptide T-101 (RSGADPLESALKELKRFIREWT) | reduction of membrane ABCA1 levels | greater cholesterol efflux | – |
| T-127: variant of peptide T-101 (RSGADAAESAAKELKRFIREWT) | reduction of membrane ABCA1 levels | – | – |
| T-128: variant of peptide T-101 (RSGADALASALKELKRFIREWT) | reduction of membrane ABCA1 levels | greater cholesterol efflux | – |
| T-130: variant of peptide T-101 (RSGADALESPLKELKRFIREWT) | reduction of membrane ABCA1 levels | – | – |
| T-132: variant of peptide T-101 (RSGADALESALAELKRFIREWT) | reduction of membrane ABCA1 levels | – | – |
| T-134: variant of peptide T-101 (RSGADALESALKEAKRFIREWT) | reduction of membrane ABCA1 levels | greater cholesterol efflux | – |
| T-135: variant of peptide T-101 (RSGADALESALKELARFIREWT) | reduction of membrane ABCA1 levels | greater cholesterol efflux | – |
| T-137: variant of peptide T-101 (RSGADALESALKELKRAIREWT) | reduction of membrane ABCA1 levels | greater cholesterol efflux | – |
| T-138: variant of peptide T-101 (RSGADALESALKELKRFAREWT) | reduction of membrane ABCA1 levels | greater cholesterol efflux | – |
| T-140: variant of peptide T-101 (RSGADALESALKELKRFIRAWT) | – | greater cholesterol efflux | – |
| T-142: variant of peptide T-101 (RSGADALESALKELKRFIREWA) | – | greater cholesterol efflux | – |
| T-143: variant of peptide T-101 (RSGGDALESALKELKRFIREWT) | – | greater cholesterol efflux | – |
| T-144: variant of peptide T-101 (RSGADGLESALKELKRFIREWT) | – | greater cholesterol efflux | – |
| T-146: variant of peptide T-101 (AAAADALESALKELKRFIREWT) | – | greater cholesterol efflux | – |
| T-151: variant of peptide T-101 (RSGADALESALKELKRFIRAAA) | – | greater cholesterol efflux | – |
| T-173: variant of peptide T-087 (AAAERFRALFKELADYFR) | – | – | reduction of membrane ABCA1 levels |
| T-177: variant of peptide T-087 (DAWERFRALFKEAAAYFR) | – | – | reduction of membrane ABCA1 levels |

Reference: patent US20260115250A1, “METHODS OF TREATING AGE-RELATED MACULAR DEGENERATION” (Character Biosciences, Inc., priority 2022, published 2026)
